Patent US7696171
Where two headings read alike, the source gives them in different places.

What was measured:
FGF receptor (FGFR) [1] = assay: cell-based or functional assay
FGF receptor (FGFR) [2] = assay: cell-based or functional assay; remark: listed apart in the source

mitogenic activity (NIH 3T3 fibroblast proliferation, EC50) (fold reduction) (FGF receptor (FGFR) [1]) | mitogenic activity (NIH 3T3 fibroblast proliferation, EC50) (fold reduction) (FGF receptor (FGFR) [2]) | Substance
2 | 3 | FGF-1 Glu87→Val/Pro134→Val mutant (in the WT* Cys117→Val background) (from UniProt P05230 16-155) (ligand)
– | 1000 | FGF-1 Lys12→Val/Asn95→Val mutant (in the WT* Cys117→Val background) (from UniProt P05230 16-155) (ligand)
